Test results taken from patent US20210132079A1 (UCB, published 2021).

Columns and labels:
[1] = molecular target: T1, human TNFα in complex with compound (1) (human, UniProt P01375 77-233); assay: SPR BIAcore, compound-bound against apo TNFα
T1 construct: also called human TNFα + compound (1); TNFα-compound (1) complex

[2] = molecular target: T2, human TNFα in complex with compound (2) (human, UniProt P01375 77-233); assay: SPR BIAcore, compound-bound against apo TNFα
T2 construct: also called human TNFα + compound (2)
T2 sequence (P01375 77-233 limits assumed, one chain of several): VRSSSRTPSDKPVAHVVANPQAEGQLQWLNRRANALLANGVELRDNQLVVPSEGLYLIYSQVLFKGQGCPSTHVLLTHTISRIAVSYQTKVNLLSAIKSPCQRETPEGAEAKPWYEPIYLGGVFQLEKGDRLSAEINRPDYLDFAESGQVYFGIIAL

T1 sequence (P01375 77-233 limits assumed, one chain of several): as above

B1: CA185_01979 mouse IgG1 (mIgG1, kappa) (antibody, V domains shown)
VH: EVHLVESGPGLVKPSQSLSLTCSVTGYSITNSYWDWIRKFPGNKMEWMGYINYSGSTGYNPSLKSRISISRDTSNNQFFLQLNSITTEDTATYYCARGTYGYNAYHFDYWGRGVMVTVSS
VL: DIQMTQSPASLSASLEEIVTITCQASQDIGNWLSWYQQKPGKSPHLLIYGTTSLADGVPSRFSGSRSGTQYSLKISGLQVADIGIYVCLQAYSTPFTFGSGTKLEIKR
notes: also called CA185_01979.0; VR0001842
[1]
  log selective binding against apo human TNFα: > 2 log
[2]
  log selective binding against apo human TNFα: > 2 log
